# In paper PMC8065156, “Specificity of AMPylation of the human chaperone BiP is mediated by TPR motifs of FICD” (Nature Communications, 2021):
# How the values were obtained:
# BiP 19–654 [1] = target: T1, BiP 19–654 (human, UniProt P11021 19-654)
# BiP 19–654 [2] = target: T1, BiP 19–654; remark: listed apart in the source
# T1 sequence (P11021 19-654): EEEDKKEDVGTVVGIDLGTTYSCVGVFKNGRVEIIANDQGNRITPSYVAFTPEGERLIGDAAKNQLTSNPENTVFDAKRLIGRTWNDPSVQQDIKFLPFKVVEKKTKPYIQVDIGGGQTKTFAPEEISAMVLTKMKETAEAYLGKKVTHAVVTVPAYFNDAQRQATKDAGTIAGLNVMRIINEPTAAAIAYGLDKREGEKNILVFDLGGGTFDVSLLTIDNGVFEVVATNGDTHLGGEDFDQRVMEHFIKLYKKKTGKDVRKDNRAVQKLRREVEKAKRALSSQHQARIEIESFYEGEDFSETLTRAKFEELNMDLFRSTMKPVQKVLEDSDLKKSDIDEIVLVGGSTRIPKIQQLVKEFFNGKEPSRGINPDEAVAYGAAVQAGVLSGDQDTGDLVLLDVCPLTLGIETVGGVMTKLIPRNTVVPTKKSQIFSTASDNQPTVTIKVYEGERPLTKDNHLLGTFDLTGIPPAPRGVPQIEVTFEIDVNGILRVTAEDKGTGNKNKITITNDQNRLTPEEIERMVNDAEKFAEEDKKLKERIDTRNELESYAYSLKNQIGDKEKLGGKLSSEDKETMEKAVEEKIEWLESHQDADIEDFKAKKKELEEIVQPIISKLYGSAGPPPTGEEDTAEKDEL
Binder,"AMPylation of BiP 19–654 WT by the FICD 102–458 L258D mutant, 30 min, western blot with αAMP antibody, against FICD L258D (BiP 19–654 [1])","AMPylation of BiP 19–654 WT by the FICD 102–458 L258D Fic-domain mutant, 30 min, western blot with αAMP antibody, against FICD L258D (BiP 19–654 [2])"
FICD 102–458 L258D E105A (enzyme) GKLAARAALNQALEMKRQGKREKAQKLFMHALKMDPDFVDALTEFGIFSEEDKDIIQADYLYTRALTISPYHEKALVNRDRTLPLVEEIDQRYFSIIDSKVKKVMSIPKGNSALRRVMEETYYHHIYHTVAIEGNTLTLSEIRHILETRYAVPGKSDEEQNEVIGMHAAMKYINTTLVSRIGSVTISDVLEIHRRVLGYVDPVEAGRFRTTQVLVGHHIPPHPQDVEKQMQEFVQWLNSEEAMNLHPVEFAALAHYKLVYIHPFIDGNGRTSRLLMNLILMQAGYPPITIRKEQRSDYYHVLEAANEGDVRPFIRFIAKCTETTLDTLLFATTEYSVALPEAQPNHSGFKETLPVKP,80 % reduction,–
FICD 102–458 L258D R396A (enzyme) GKLEARAALNQALEMKRQGKREKAQKLFMHALKMDPDFVDALTEFGIFSEEDKDIIQADYLYTRALTISPYHEKALVNRDRTLPLVEEIDQRYFSIIDSKVKKVMSIPKGNSALRRVMEETYYHHIYHTVAIEGNTLTLSEIRHILETRYAVPGKSDEEQNEVIGMHAAMKYINTTLVSRIGSVTISDVLEIHRRVLGYVDPVEAGRFRTTQVLVGHHIPPHPQDVEKQMQEFVQWLNSEEAMNLHPVEFAALAHYKLVYIHPFIDGNGRTSRLLMNLILMQAGYPPITIRKEQASDYYHVLEAANEGDVRPFIRFIAKCTETTLDTLLFATTEYSVALPEAQPNHSGFKETLPVKP,–,95 % decrease
FICD 102–458 L258D H318A (enzyme) GKLEARAALNQALEMKRQGKREKAQKLFMHALKMDPDFVDALTEFGIFSEEDKDIIQADYLYTRALTISPYHEKALVNRDRTLPLVEEIDQRYFSIIDSKVKKVMSIPKGNSALRRVMEETYYHHIYHTVAIEGNTLTLSEIRHILETRYAVPGKSDEEQNEVIGMHAAMKYINTTLVSRIGSVTISDVLEIHRRVLGYVDPVEAGRFRTTQVLVGAHIPPHPQDVEKQMQEFVQWLNSEEAMNLHPVEFAALAHYKLVYIHPFIDGNGRTSRLLMNLILMQAGYPPITIRKEQRSDYYHVLEAANEGDVRPFIRFIAKCTETTLDTLLFATTEYSVALPEAQPNHSGFKETLPVKP,–,45 % impaired
FICD 102–458 L258D H401A (enzyme) GKLEARAALNQALEMKRQGKREKAQKLFMHALKMDPDFVDALTEFGIFSEEDKDIIQADYLYTRALTISPYHEKALVNRDRTLPLVEEIDQRYFSIIDSKVKKVMSIPKGNSALRRVMEETYYHHIYHTVAIEGNTLTLSEIRHILETRYAVPGKSDEEQNEVIGMHAAMKYINTTLVSRIGSVTISDVLEIHRRVLGYVDPVEAGRFRTTQVLVGHHIPPHPQDVEKQMQEFVQWLNSEEAMNLHPVEFAALAHYKLVYIHPFIDGNGRTSRLLMNLILMQAGYPPITIRKEQRSDYYAVLEAANEGDVRPFIRFIAKCTETTLDTLLFATTEYSVALPEAQPNHSGFKETLPVKP,–,60 % impaired
FICD 102–458 L258D K121A (enzyme) GKLEARAALNQALEMKRQGAREKAQKLFMHALKMDPDFVDALTEFGIFSEEDKDIIQADYLYTRALTISPYHEKALVNRDRTLPLVEEIDQRYFSIIDSKVKKVMSIPKGNSALRRVMEETYYHHIYHTVAIEGNTLTLSEIRHILETRYAVPGKSDEEQNEVIGMHAAMKYINTTLVSRIGSVTISDVLEIHRRVLGYVDPVEAGRFRTTQVLVGHHIPPHPQDVEKQMQEFVQWLNSEEAMNLHPVEFAALAHYKLVYIHPFIDGNGRTSRLLMNLILMQAGYPPITIRKEQRSDYYHVLEAANEGDVRPFIRFIAKCTETTLDTLLFATTEYSVALPEAQPNHSGFKETLPVKP,> 98 % reduction,–
